One protein from PMC12462528, “Molecular basis of ParA ATPase activation by the CTPase ParB during bacterial chromosome segregation” (Nature Communications, 2025) can be followed below.

This series deals with the molecule itself. Nature of the series: HDX-MS; 50 µM ParA or ParA-D60A with 1 mM ATP, with or without 1 mM ParB_(1-20) and/or 1 mg/mL salmon sperm DNA; 25 °C (Datasets 1 and 2).

B1: ParA-D60A (natural protein, Myxococcus xanthus DK1622, UniProt Q1CVJ3 1-283, looked up)
chain: MHCITRGALAYGRGERGWATVGRIICISNQKGGVGKTTTAINLAASLASAERRTLLVDMAPQGNAGSGLGIKQDNITGTIYEALLNDRPIQELLHPTELRYLQVVPATPDLTGAEVELVNQDNREFRLRDALRPLAAEYDYIIIDCPPSLGLLTLNALAAADSVLIPLQCEYYALEGLSQLTHTIDLVKQGLNPDLKMEGILLTMFDSRANIAHQVVEEVRGYFKKQVFEVIVPRNVRLSECPSFGKPIILYDIKSKGCESYLALGRELMKRDTPKSPRRRVA
notes: ParA of Myxococcus xanthus DK1622 lacking the catalytic aspartic acid D60; also called ATPase-deficient ParA variant; source: E. coli Rosetta(DE3)pLysS, purified (as His6-ParA)
For the protein B1, the binding result was “binds”.
